Experiments:
[1] = target: T1, HLA-A2/E6(29-38) tetramer (human; HPV 16); test: flow cytometry, tetramer + anti-CD8; transfected mix of CD8- and CD8+ Jurkat-derived cells;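 further: CD4+ and CD4+/CD8+ cell mixtures transiently given TCR plasmids, analysed 48 h post-transfection by flow cytometry with E6(29-38)–HLA-A*02:01 tetramer plus anti-CD8 antibody co-stain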
T1 construct: also called E6(29-38) peptide-MHC tetramer; E6 tet
Description: (§1) For transfection, the CD4+ and CD4+/CD8+ cell mixtures were transiently transfected with TCR-encoding plasmids and 48 hours after transfection, cells were assessed by flow cytometry for (1) binding of the target peptide in the context of an MHC molecule (HLA:A02:01) by staining with an E6(29-38) peptide- or an E7(11-19) peptide-MHC tetramer reagent, and/or (2) CD8+ independent binding of the target by co-staining the tetramer-labeled cells with an anti-CD8 antibody.

[2] = target: T1, HLA-A2/E6(29-38) tetramer; test: flow cytometry, tetramer + anti-CD8; transfected Jurkat-derived cells, CD8+ cells
Description: as §1

[3] = target: T2, HLA-A2/E7(11-19) tetramer (human; HPV 16); test: flow cytometry, tetramer + anti-CD8; transfected mix of CD8- and CD8+ Jurkat-derived cells;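 further: cells transiently transfected with TCR-encoding plasmids, analysed 48 h afterwards by co-staining with HLA-A*02:01 peptide tetramer and anti-CD8 antibody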
T2 construct: also called E7(11-19) peptide-MHC tetramer; E7 tet
Description: as §1

B1: TCR 28 (codon-optimized, cysteine-modified) (TCR, V domains shown)
V domain 1: RKEVEQDPGPFNVPEGATVAFNCTYSNSASQSFFWYRQDCRKEPKLLMSVYSSGNEDGRFTAQLNRASQYISLLIRDSKLSDSATYLCVVRGGGTSYGKLTFGQGTILTVHP
V domain 2: DVKVTQSSRYLVKRTGEKVFLECVQDMDHENMFWYRQDPGLGLRLIYFSYDVKMKEKGDIPEGYSVSREKKERFSLILESASTNQTSMYLCASSLWGRSSGNTIYFGEGSWLTVVE
- % cells E6 tet+/CD8+ quadrant [1]: 13.1%
- % cells E6 tet+/CD8- quadrant [1]: 0.15%

B2: TCR 20 (codon-optimized, cysteine-modified) (TCR, V domains shown)
V domain 1: AQKVTQAQTEISVVEKEDVTLDCVYETRDTTYYLFWYKQPPSGELVFLIRRNSFDEQNEISGRYSWNFQKSTSSFNFTITASQVVDSAVYFCALWTGANNLFFGTGTRLTVIP
V domain 2: GAVVSQHPSRVICKSGTSVKIECRSLDFQATTMFWYRQFPKQSLMLMATSNEGSKATYEQGVEKDKFLINHASLTLSTLTVTSAHPEDSSFYICSASSLARRSYEQYFGPGTRLTVTE
- % cells E6 tet+/CD8+ quadrant [1]: 38.2%
- % cells E6 tet+/CD8- quadrant [1]: 34.1%

B3: TCR 22 (codon-optimized, cysteine-modified) (TCR, V domains shown)
V domain 1: GQNIDQPTEMTATEGAIVQINCTYQTSGFNGLFWYQQHAGEAPTFLSYNVLDGLEEKGRFSSFLSRSKGYSYLLLKELQMKDSASYLCAVRARMDSNYQLIWGAGTKLIIKP
V domain 2: DAGVTQSPTHLIKTRGQHVTLRCSPISGHKSVSWYQQVLGQGPQFIFQYYEKEERGRGNFPDRFSARQFPNYSSELNVNALLLGDSALYLCASSRTENYGYTFGSGTRLTVVE
- % cells E6 tet+/CD8+ quadrant [2]: 51.2%
- % cells E6 tet+/CD8- quadrant [2]: 0.14%

B4: TCR 30 (codon-optimized, cysteine-modified) (TCR, V domains shown)
V domain 1: DAKTTQPPSMDCAEGRAANLPCNHSTISGNEYVYWYRQIHSQGPQYIIHGLKNNETNEMASLIITEDRKSSTLILPHATLRDTAVYYCIVRGTSVLQGNEKLTFGTGTRLTIIP
V domain 2: EPEVTQTPSHQVTQMGQEVILRCVPISNHLYFYWYRQILGQKVEFLVSFYNNEISEKSEIFDDQFSVERPDGSNFTLKIRSTKLEDSAMYFCASSRQPSSGNTIYFGEGSWLTVVE
- % cells E6 tet+/CD8+ quadrant [1]: 31%
- % cells E6 tet+/CD8- quadrant [1]: 0.74%

B5: modified version of TCR 13 (TCR)
TCR alpha: AQSVTQLDSHVSVSEGTPVLLRCNYSSSYSPSLFWYVQHPNKGLQLLLKYTSAATLVKGINGFEAEFKKSETSFHLTKPSAHMSDAAEYFCVVRGGKLIFGQGTELSVKPNIQNPDPAVYQLRDSKSSDKSVCLFTDFDSQTNVSQSKDSDVYITDKCVLDMRSMDFKSNSAVAWSNKSDFACANAFNNSIIPEDTFFPSPESSCDVKLVEKSFETDTNLNFQNLSVIGFRILLLKVAGFNLLMTLRLWSS
TCR beta: GAGVSQSPRYKVAKRGQDVALRCDPISGHVSLFWYQQALGQGPEFLTYFQNEAQLDKSGLPSDRFFAERPEGSVSTLKIQRTQQEDSAVYLCASSPTGTERELFFGEGSRLTVLEDLKNVFPPEVAVFEPSEAEISHTQKATLVCLATGFYPDHVELSWWVNGKEVHSGVCTDPQPLKEQPALNDSRYCLSSRLRVSATFWQNPRNHFRCQVQFYGLSENDEWTQDRAKPVTQIVSAEAWGRADCGFTSESYQQGVLSATILYEILLGKATLYAVLVSALVLMAMVKRKDSRG
- % cells E6 tet+/CD8+ quadrant [2]: 38.6%
- % cells E6 tet+/CD8- quadrant [2]: 0.064%

B6: TCR 29 (codon-optimized, cysteine-modified) (TCR, V domains shown)
V domain 1: AQKITQTQPGMFVQEKEAVTLDCTYDTSDQSYGLFWYKQPSSGEMIFLIYQGSYDEQNATEGRYSLNFQKARKSANLVISASQLGDSAMYFCAMRLNTGTASKLTFGTGTRLQVTL
V domain 2: DGGITQSPKYLFRKEGQNVTLSCEQNLNHDAMYWYRQDPGQGLRLIYYSQIVNDFQKGDIAEGYSVSREKKESFPLTVTSAQKNPTAFYLCASSPWGRATNEQFFGPGTRLTVLE
- % cells E6 tet+/CD8+ quadrant [1]: 35.6%
- % cells E6 tet+/CD8- quadrant [1]: 44.5%

B7: TCR 21 (codon-optimized, cysteine-modified) (TCR, V domains shown)
V domain 1: AQKITQTQPGMFVQEKEAVTLDCTYDTSDQSYGLFWYKQPSSGEMIFLIYQGSYDEQNATEGRYSLNFQKARKSANLVISASQLGDSAMYFCAMREGRVTGGGNKLTFGTGTQLKVEL
V domain 2: NAGVTQTPKFQVLKTGQSMTLQCAQDMNHNSMYWYRQDPGMGLRLIYYSASEGTTDKGEVPNGYNVSRLNKREFSLRLESAAPSQTSVYFCASRPWGNQNTEAFFGQGTRLTVVE
- % cells E6 tet+/CD8+ quadrant [2]: 51.6%
- % cells E6 tet+/CD8- quadrant [2]: 0.22%
- % cells E6 tet+/CD8+ quadrant [1]: 28.8%
- % cells E6 tet+/CD8- quadrant [1]: 32.7%

B8: modified version of TCR 14 (TCR)
TCR alpha: ILNVEQSPQSLHVQEGDSTNFTCSFPSSNFYALHWYRWETAKSPEALFVMTLNGDEKKKGRISATLNTKEGYSYLYIKGSQPEDSATYLCASQTGANNLFFGTGTRLTVIPYIQNPDPAVYQLRDSKSSDKSVCLFTDFDSQTNVSQSKDSDVYITDKCVLDMRSMDFKSNSAVAWSNKSDFACANAFNNSIIPEDTFFPSPESSCDVKLVEKSFETDTNLNFQNLSVIGFRILLLKVAGFNLLMTLRLWSS
TCR beta: DVKVTQSSRYLVKRTGEKVFLECVQDMDHENMFWYRQDPGLGLRLIYFSYDVKMKEKGDIPEGYSVSREKKERFSLILESASTNQTSMYLCASTFWGQRRTEAFFGQGTRLTVVEDLNKVFPPEVAVFEPSEAEISHTQKATLVCLATGFFPDHVELSWWVNGKEVHSGVCTDPQPLKEQPALNDSRYCLSSRLRVSATFWQNPRNHFRCQVQFYGLSENDEWTQDRAKPVTQIVSAEAWGRADCGFTSVSYQQGVLSATILYEILLGKATLYAVLVSALVLMAMVKRKDF
- % cells E6 tet+/CD8+ quadrant [2]: 38.4%
- % cells E6 tet+/CD8- quadrant [2]: 0.04%

B9: TCR 17 (codon-optimized, cysteine-modified) (TCR, V domains shown)
V domain 1: AQKITQTQPGMFVQEKEAVTLDCTYDTSDPSYGLFWYKQPSSGEMIFLIYQGSYDQQNATEGRYSLNFQKARKSANLVISASQLGDSAMYFCAMREGRGDKIIFGKGTRLHILP
V domain 2: DVKVTQSSRYLVKRTGEKVFLECVQDMDHENMFWYRQDPGLGLRLIYFSYDVKMKEKGDIPEGYSVSREKKERFSLILESASTNQTSMYLCASSLWGRSNQPQHFGDGTRLSILE
- % cells E6 tet+/CD8+ quadrant [2]: 34.7%
- % cells E6 tet+/CD8- quadrant [2]: 0.17%
- % cells E6 tet+/CD8+ quadrant [1]: 36.2%
- % cells E6 tet+/CD8- quadrant [1]: 21.3%

B10: TCR 19 (codon-optimized, cysteine-modified) (TCR, V domains shown)
V domain 1: AQKITQTQPGMFVQEKEAVTLDCTYDTSDQSYGLFWYKQPSSGEMIFLIYQGSYDEQNATEGRYSLNFQKARKSANLVISASQLGDSAMYFCAMRENTGTASKLTFGTGTRLQVTL
V domain 2: DVKVTQSSRYLVKRTGEKVFLECVQDMDHENMFWYRQDPGLGLRLIYFSYDVKMKEKGDIPEGYSVSREKKERFSLILESASTNQTSMYLCASSSWGQSTGEQYFGPGTRLTVTE
- % cells E6 tet+/CD8+ quadrant [1]: 35.5%
- % cells E6 tet+/CD8- quadrant [1]: 20.8%

B11: TCR 25 (codon-optimized, cysteine-modified) (TCR, V domains shown)
V domain 1: AQKITQTQPGMFVQEKEAVTLDCTYDTSDQSYGLFWYKQPSSGEMIFLIYQGSYDEQNATEGRYSLNFQKARKSANLVISASQLGDSAMYFCAMREGSLTGGGNKLTFGTGTQLKVEL
V domain 2: DVKVTQSSRYLVKRTGEKVFLECVQDMDHENMFWYRQDPGLGLRLIYFSYDVKMKEKGDIPEGYSVSREKKERFSLILESASTNQTSMYLCASSLWGQSNQPQHFGDGTRLSILE
- % cells E6 tet+/CD8+ quadrant [1]: 34%
- % cells E6 tet+/CD8- quadrant [1]: 14.7%

B12: TCR 16 (codon-optimized, cysteine-modified) (TCR, V domains shown)
V domain 1: KQEVTQIPAALSVPEGENLVLNCSFTDSAIYNLQWFRQDPGKGLTSLLLIQSSQREQTSGRLNASLDKSSGRSTLYIAASQPGDSATYLCAVRPANNNDMRFGAGTRLTVKP
V domain 2: DVKVTQSSRYLVKRTGEKVFLECVQDMDHENMFWYRQDPGLGLRLIYFSYDVKMKEKGDIPEGYSVSREKKERFSLILESASTNQTSMYLCASSLWGRSNQPQHFGDGTRLSILE
- % cells E6 tet+/CD8+ quadrant [1]: 35.6%
- % cells E6 tet+/CD8- quadrant [1]: 28.2%

B13: TCR 18 (codon-optimized, cysteine-modified) (TCR, V domains shown)
V domain 1: KQEVTQIPAALSVPEGENLVLNCSFTDSAIYNLQWFRQDPGKGLTSLLLIQSSQREQTSGRLNASLDKSSGRSTLYIAASQPGDSATYLCAEGNAGGTSYGKLTFGQGTILTVHP
V domain 2: DVKVTQSSRYLVKRTGEKVFLECVQDMDHENMFWYRQDPGLGLRLIYFSYDVKMKEKGDIPEGYSVSREKKERFSLILESASTNQTSMYLCASSFWGRSNSPLHFGNGTRLTVTE
- % cells E6 tet+/CD8+ quadrant [2]: 50.4%
- % cells E6 tet+/CD8- quadrant [2]: 0.045%
- % cells E6 tet+/CD8+ quadrant [1]: 23.3%
- % cells E6 tet+/CD8- quadrant [1]: 3.61%

B14: TCR 23 (codon-optimized, cysteine-modified) (TCR, V domains shown)
V domain 1: AQKITQTQPGMFVQEKEAVTLDCTYDTSDQSYGLFWYKQPSSGEMIFLIYQGSYDEQNATEGRYSLNFQKARKSANLVISASQLGDSAMYFCAMSPPGGSARQLTFGSGTQLTVLP
V domain 2: DVKVTQSSRYLVKRTGEKVFLECVQDMDHENMFWYRQDPGLGLRLIYFSYDVKMKEKGDIPEGYSVSREKKERFSLILESASTNQTSMYLCASSPWGQSNQPQHFGDGTRLSILE
- % cells E6 tet+/CD8+ quadrant [2]: 43.6%
- % cells E6 tet+/CD8- quadrant [2]: 0.18%
- % cells E6 tet+/CD8+ quadrant [1]: 52.5%
- % cells E6 tet+/CD8- quadrant [1]: 22.5%

B15: TCR 32 (codon-optimized, cysteine-modified) (TCR, V domains shown)
V domain 1: TQLLEQSPQFLSIQEGENLTVYCNSSSVFSSLQWYRQEPGEGPVLLVTVVTGGEVKKLKRLTFQFGDARKDSSLHITAAQPGDTGLYLCAGGSNYKLTFGKGTLLTVNP
V domain 2: DSGVTQTPKHLITATGQRVTLRCSPRSGDLSVYWYQQSLDQGLQFLIQYYNGEERAKGNILERFSAQQFPDLHSELNLSSLELGDSALYFCASSVGGDHSDEQFFGPGTRLTVLE
- % cells E7 tet+/CD8+ quadrant [3]: 25.3%
- % cells E7 tet+/CD8- quadrant [3]: 33.5%

B16: TCR 15 (codon-optimized, cysteine-modified) (TCR, V domains shown)
V domain 1: AQKITQTQPGMFVQEKEAVTLDCTYDTSDQSYGLFWYKQPSSGEMIFLIYQGSYDEQNATEGRYSLNFQKARKSANLVISASQLGDSAMYFCAMKPGGYNKLIFGAGTRLAVHP
V domain 2: DAGVIQSPRHEVTEMGQEVTLRCKPISGHNSLFWYRQTMMRGLELLIYFNNNVPIDDSGMPEDRFSAKMPNASFSTLKIQPSEPRDSAVYFCASSLVGRSRTEQYFGPGTRLTVTE
- % cells E6 tet+/CD8+ quadrant [1]: 21.4%
- % cells E6 tet+/CD8- quadrant [1]: 40.2%

B17: TCR 26 (codon-optimized, cysteine-modified) (TCR, V domains shown)
V domain 1: AQKITQTQPGMFVQEKEAVTLDCTYDTSDQSYGLFWYKQPSSGEMIFLIYQGSYDEQNATEGRYSLNFQKARKSANLVISASQLGDSAMYFCAMRDARNNDMRFGAGTRLTVKP
V domain 2: NAGVTQTPKFRVLKTGQSMTLLCAQDMNHEYMYWYRQDPGMGLRLIHYSVGEGTTAKGEVPDGYNVSRLKKQNFLLGLESAAPSQTSVYFCASSYYASGRNYEQYFGPGTRLTVTE
- % cells E6 tet+/CD8+ quadrant [1]: 42.3%
- % cells E6 tet+/CD8- quadrant [1]: 47.4%
